From patent US20140079722A1, “EXTRACELLULAR TARGETED DRUG CONJUGATES” (CENTROSE, LLC, priority 2011, published 2014)

Columns and labels:
[1] = Single intraperitoneal dose tolerability; assay type: in vivo, male BALB/c mice; details: drug loading of 2, 500 mg/kg intraperitoneal
Protocol: In a separate experiment, male BALB/c mice (BALB/cAnNHsd, Harlan Laboratories) were administered a single and immediate dose of 500 mg/kg of M53-PEG24-CEN09-106 with a drug loading of 2 drugs per antibody by intraperitoneal injection. Animal weights were recorded over a 22 day period and visual observations were made over a period of 146 days and compared to mice receiving a vehicle control. […] Mice regained normal control body weight by day 15.

A549 xenograft = A549 xenograft model (cell implant); assay type: in vivo, Hsd:Athymic Nude-Foxn1nu mice
Protocol: Briefly, to establish a non-small-cell lung cancer disease model, 6×10^6 A549 cells in 200 μL, RPMI1640+50% Matrigel HC (BD Biosciences, San Jose, Calif.) were implanted into the left flank of Hsd:Athymic Nude-Foxn1^nu mice (Harlan, Indianapolis, Ind.). Therapy with antibody-drug conjugates was then initiated when the tumor volume in groups of 5 animals averaged ˜300 mm^3. Treatment using vehicle control, 0.1 and 1 mg/kg M53-PEG24-CEN09-106, and 10 mg/kg control M53-PEG24-CEN09-106 (a control conjugate with a drug loading of 7 drugs per antibody where the antibody's target is not on the cell surface but drug and linker and antibody isotype are the same as M53-PEG24-CEN09-106) were all administered i.v. using the schedule of one injection every 7 days with 3 total injected doses (q7d×3). 15 mg/kg paclitaxel dosed at q2d×5 served as a positive control treatment group. Using this schedule, tumor volumes were measured for each group using calibrated vernier calipers and plotted against first day of tumor implant for 54 days post-implant and 40 days post-initial dose, to produce the graph shown in FIG. 3.

B1: M53-PEG24-CEN09-106: Class 1 EDC: antibody M53 conjugated to linker-ready agent PEG24-CEN09-106 (scillarenin, 4-amino-xyloside, PEG24) (conjugate)
heavy: EVQLVESGGGLVQPKGTLKLSCAASGFSFNTHAMNWVRQAPGKSLEWVARTMSKSNNYATYYADSVKDRFIIRADDSQSMLYLQMNNLKTEDTAMYYCVRDDPKRGMDYWGQGTSVTVSSAKTTPPSVYPLAPGSAAQTNSMVTLGCLVKGYFPEPVTVTWNSGSLSSGVHTFPAVLQSDLYTLSSSVTVPSSTWPSETVTCNVAHPASSTKVDKKIE
light: GIVMSQSPSSLAVSVGEKVTMSCKPSQSLLYSRNQKIYLAWYQQKPGQSPKLLIYWASTRESGVPDRFTGSGSGTDFTLIISSVRAEDLAVYYCQQYYNYPLTFGAGTKLELKRADAAPTVSIFPPSSEQLTSGGASVVCFLNNFYPKDINVKWKIDGSERQNGVLNSWTDQDSKDSTYSMSSTLTLTKDEYERHNSYTCEATHKTSTSPIVKSFNR
For B1, the visual observations ([1]; 146 days) was “no overt signs of toxicity”, the “average loss in body weight” value ([1]; first 6 days post injection) was 30% and the “growth inhibition of the tumor compared to vehicle” value (A549 xenograft; drug loading of 8, 0.1 mg/kg i.v. q7dx3, A549 xenograft) was 35%. For the same molecule, the “growth inhibition of the tumor compared to vehicle” value (A549 xenograft; drug loading of 8, 1 mg/kg i.v. q7dx3, A549 xenograft) was 65%.
